The values that follow come from patent US20110318808.

Series [1] deals with T1, fluorophore/quencher substrate peptide DABCYL-YGENVTFQGSK-EDANS.
T1 chain: YGENVTFQGSK

In series [2] the target is T2, fusion substrate protein with the ENVTFQG consensus recognition sequence.
T2 chain: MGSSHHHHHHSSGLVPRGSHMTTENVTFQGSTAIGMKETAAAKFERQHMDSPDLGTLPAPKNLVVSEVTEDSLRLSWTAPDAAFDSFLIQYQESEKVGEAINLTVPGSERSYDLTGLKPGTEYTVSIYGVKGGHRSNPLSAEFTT

For series [3], the target named is T3, fusion substrate protein with the PVA NIa protease consensus sequence with a P2' proline (ENVTFQGP).
T3 chain: ENVTFQGP

In series [4] the target is T4, fusion substrate protein with the TEV NIa protease recognition sequence (ENLYGQGS).
T4 chain: ENLYGQGS

The target of series [5] is T5, fusion substrate protein with the TVMV NIa protease recognition sequence (ETVRFQGS).
T5 chain: ETVRFQGS

The target of series [6] is T6, synthetic peptide SEAVYTQGSS (NIa/NIb junction recognition sequence EAVYTQG).
T6 chain: SEAVYTQGSS

In series [7] the target is T7, synthetic peptide SEMVTNQSSS (recognition sequence EMVTNQS).
T7 chain: SEMVTNQSSS

Series [8] addresses T8, synthetic peptide SENVTFQGSS (consensus recognition sequence ENVTFQG).
T8 chain: SENVTFQGSS

Series [9] concerns the target T9, synthetic peptide SENVTKQLSS (recognition sequence ENVTKQL).
T9 chain: SENVTKQLSS

Series [10] addresses T10, synthetic peptide SEVVLFQASS (P3/6K1 junction recognition sequence EVVLFQA).
T10 chain: SEVVLFQASS

B1: potato virus A (PVA) NIa protease, wild type (protein)
chain: STSMFRGVRDYNPISSVICQLENESEGRTTQLFGLGFGPFIITNQHLFVRNNGSLTVRSQMGVFKVNSTVTLQMRPVEGRDVLIIKMPKDFPPFPQRLKFRQPTHSEKVCLILTNFQQKSSSSMVSETSHIIPKENTYFWKHWISTKEGHCGSPIVSTTDGAILGIHSLSNMTNTSNYFACFPKGFTETYLATESAHEWVKGWKFNASNVCWGSFHLQDSKPTKEFKTVKLV
For the protein B1, the Km (uM), DTT + in [1] was 178 µM. Besides, the Relative Kcat/Km, DTT + in [1] was found to be 100. The Vmax (RFU/min), DTT + in series [1] was 78500 RFU/min. For the same protein, in series [2], the “proteolytic cleavage of the substrate monitored by SDS-PAGE” value is “cleaved the substrate to completion”. Further, the “Cleaved by NIa (fusion substrate protein)” value in series [3] is “No”; in series [4], “No”; in [5], “Yes”. In addition, the “rate of cleavage of fusion substrate” value in series [5] is listed as “able to cleave the fusion substrate with the TVMV NIa protease recognition sequence, although at a much lower rate than the PVA NIa protease consensus sequence”. Besides, the “Cleaved by NIa (synthetic peptide, RP-HPLC and LC-MS)” value is “Yes” in series [6]; “No” in series [7]; “Yes” in series [8]; “No” in series [9]; “Yes” in [10].
